Target: T1, EAiC3b (erythrocytes coated with iC3b) (Homo sapiens, UniProt P01024)
T1 construct: EAiC3b (erythrocytes coated with iC3b) were generated by treating EAC3b with purified human factors H and I; tissue Sigma Chemical Co. (C5-deficient human serum); host or cells: human serum C3 deposited on IgM-coated erythrocytes
Test: Erythrocyte binding assay, EAiC3b on immobilized proteins or peptides
Conditions: 37° C., divalent cations
Protocol: Erythrocytes (E) coated with rabbit anti-E IgM (EA) or C3b (EAC3b) were prepared as described by Dana et al. (J. Immunol. 73:153, 1984). EAiC3b (erythrocytes coated with iC3b) were generated by treating EAC3b with purified human factors H and I, or alternatively prepared from EA using C5-deficient human serum (Sigma Chemical Co., St. Louis, Mo.). EAiC3b cells were washed and stored in isotonic veronal-buffered saline (VBS^2+), pH 7.4, containing 0.15 mM calcium-1 mM magnesium (MgCl2+CaCl2) and 1 mg/ml Soybean Trypsin Inhibitor (STI; Worthington Biochemical Co., Freehold, N.J.) at 1.5×10^8 cells/ml. […]
Immobilization of recombinant proteins and peptides: Purified recombinant A-domain was added to Immulon-2 96-well microtiter plates (Dynatech) overnight. […] Binding of the anti-CD11b mabs to the coated rA-domain was measured by ELISA and read using a plate reader (Molecular Dynamics).
Erythrocyte binding assays: Fluoresceinated EAiC3b, EAC3b or EA were resuspended to 1.5×10^8/ml in buffer A, and added […] to wells containing immobilized proteins or peptides in a total volume of 100 ml. […] Fluorescence was quantified (excitatory wavelength, 490 nm, emission wavelength, 510 nm) using a SLM 8000 fluorometer (SLM Instruments, Urbana, Ill.). […] The effect of temperature was evaluated in the presence of 1 mM MnCl2 at 37° C. and at 4° C.

T1 sequence (P01024 749-1303 limits assumed): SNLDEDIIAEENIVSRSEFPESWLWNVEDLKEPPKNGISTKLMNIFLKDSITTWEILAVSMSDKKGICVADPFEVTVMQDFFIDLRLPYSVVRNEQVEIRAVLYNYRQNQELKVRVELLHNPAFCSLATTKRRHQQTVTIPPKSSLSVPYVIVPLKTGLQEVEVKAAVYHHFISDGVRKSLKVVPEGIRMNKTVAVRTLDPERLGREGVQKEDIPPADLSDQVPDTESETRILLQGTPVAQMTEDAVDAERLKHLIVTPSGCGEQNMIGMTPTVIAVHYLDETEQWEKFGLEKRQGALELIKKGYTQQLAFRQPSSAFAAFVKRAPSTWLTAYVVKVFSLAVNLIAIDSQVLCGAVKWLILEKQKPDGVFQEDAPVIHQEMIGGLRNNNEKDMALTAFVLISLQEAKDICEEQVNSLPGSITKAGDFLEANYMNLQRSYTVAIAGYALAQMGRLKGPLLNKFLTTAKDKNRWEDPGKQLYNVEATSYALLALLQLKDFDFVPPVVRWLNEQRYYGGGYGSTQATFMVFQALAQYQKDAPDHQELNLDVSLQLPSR
T1 sequence (P01024 23-667 partner limits assumed): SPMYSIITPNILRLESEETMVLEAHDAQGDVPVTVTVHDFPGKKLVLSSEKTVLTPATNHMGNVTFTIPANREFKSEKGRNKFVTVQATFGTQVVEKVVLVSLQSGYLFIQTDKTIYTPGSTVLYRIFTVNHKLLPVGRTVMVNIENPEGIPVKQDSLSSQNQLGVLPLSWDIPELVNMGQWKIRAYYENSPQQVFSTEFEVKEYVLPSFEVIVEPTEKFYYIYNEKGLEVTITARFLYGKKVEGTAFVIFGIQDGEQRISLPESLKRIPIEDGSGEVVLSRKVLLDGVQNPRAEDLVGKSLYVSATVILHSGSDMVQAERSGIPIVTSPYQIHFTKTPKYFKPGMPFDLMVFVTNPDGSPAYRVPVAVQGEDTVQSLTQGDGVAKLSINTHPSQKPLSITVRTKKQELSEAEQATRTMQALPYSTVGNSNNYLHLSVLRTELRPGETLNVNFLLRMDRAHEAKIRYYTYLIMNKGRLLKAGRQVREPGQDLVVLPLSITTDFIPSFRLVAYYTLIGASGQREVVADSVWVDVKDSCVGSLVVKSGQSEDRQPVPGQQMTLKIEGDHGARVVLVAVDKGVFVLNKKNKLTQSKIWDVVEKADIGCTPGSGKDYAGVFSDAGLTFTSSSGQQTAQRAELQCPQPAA
T1 sequence (P01024 1321-1663 partner limits assumed): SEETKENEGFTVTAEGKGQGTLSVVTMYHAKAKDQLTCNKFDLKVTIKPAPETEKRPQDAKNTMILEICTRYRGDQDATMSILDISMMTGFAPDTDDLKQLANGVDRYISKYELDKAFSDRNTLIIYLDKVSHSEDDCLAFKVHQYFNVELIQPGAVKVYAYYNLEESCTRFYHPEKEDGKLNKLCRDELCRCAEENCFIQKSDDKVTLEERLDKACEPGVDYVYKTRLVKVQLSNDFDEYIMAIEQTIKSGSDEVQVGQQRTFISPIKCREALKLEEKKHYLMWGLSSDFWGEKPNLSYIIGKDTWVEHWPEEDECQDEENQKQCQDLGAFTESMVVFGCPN

B1: r11aA: recombinant CD11a A domain expressed as GST fusion protein (protein)
chain: GNVDLVFLFDGSMSLQPDEFQKILDFMKDVMKKLSNTSYQFAAVQFSTSYKTEFDFSDYVKRKDPDALLKHVKHMLLLTNTFGAINYVATEVFREELGARPDATKVLIIITDGEATDSGNIDAAKDIIRYIIGIGKHFQTKESQETLHKFASKPASEFVKILDTFEKLKDLFTELQKKIY
- direct binding of EAiC3b to immobilized protein or peptide (listed as rA-domain derived from CD11a/CD18): did not bind
- direct binding of EAiC3b to immobilized protein or peptide (listed as rCD11a A-domain): lack of binding
